The record followed here is US20140295512A1, “Ketol-Acid Reductoisomerases With Improved Performance Properties” (CALIFORNIA INSTITUTE OF TECHNOLOGY, priority 2011, published 2014).

What all share (format): biochemical
Data set [1] in a line: High-throughput screening of KARI variant libraries in E. coli lysates. How it is done: For growth and expression of KARI variants in deep well plates, sterile toothpicks were used to pick single colonies into shallow 96-well plates filled with 300 μL LBamp. Fifty μL of these overnight cultures were used to inoculate deep well plates filled with 600 μL of LBamp per well. The plates were grown at 37° C. with shaking at 250 rpm for 3 h. One hour before induction with IPTG (final concentration 0.5 mM), the temperature of the incubator was reduced to 25° C. After induction, growth and expression continued for 20 h at 25° C. and 250 rpm. Cells were harvested at 5,300 g and 4° C. and then stored at −20=C. The plates always contained four wild-type or parent S. exigua KARI colonies, three BL21(DE3) colonies carrying pET22b(+) to control for background reactions in cell lysates, and one well that contained only media to make sure the plates were free of contaminations.
Frozen cell pellets were thawed at room temperature for 20 min and then 200 μL of lysis buffer (100 mM Kpi, 750 mg/L lysozyme, 10 mg/L DNaseI, pH 7) were added. Plates were vortexed to resuspend the cell pellets. After a 60 min incubation phase at 37° C. and shaking at 130 rpm, plates were centrifuged at 5,300 g and 4° C. for 10 min. […] The depletion of NAD(P)H was monitored at 340 nm in a plate reader (TECAN) over 200 s.

Data set [2] is described as follows: KARI assay of purified S. exigua KARI and variants with NADH (Examples 6-9). The conditions noted are these: for Ratio NADH/NADPH (U/mg): specific activity ratio. How it is done:
(§1) S. exigua KARI activity or activities of its variants were assayed kinetically by monitoring the decrease in NADPH or NADH concentration by measuring the change in absorbance at 340 nm. An assay buffer was prepared containing 100 mM potassium phosphate pH 7.0, 1 mM DTT, 2.5 mM (S)-2-acetolactate, and 10 mM MgCl2 (final concentrations in the 1-mL assay, accounting for dilution with enzyme and cofactor). Fifty μL purified enzyme and 930 μL of the assay buffer were placed into a 1-mL cuvette. The reaction was initiated by addition of 20 μL NADPH or NADH (200 μM final concentration) for a general activity assay. Michaelis-Menten constants of the cofactors were determined with varying concentrations of NADPH (200-12 μM final) or NADH (200-6 μM final).

Data set [3] can be described thus: KARI assay of purified S. exigua KARI and variants with NADPH (Examples 6-9). How it is done: as §1

B1: Se1_KARI^4E10: S. exigua KARI variant L57V, R58P, S61C (protein, UniProt D0WGK0 1-342, looked up, variant L57V R58P S61C)
Ketol-acid reductoisomerase …: MSVKTKEKEMAVTILYEQDVDPKVIQGLKVGIIGYGSQGHAHALNLMDSGVDVRVGVPEGCSSWKTAEEAGLKVTDMDTAAEEADVIMVLVPDEIQPKVYQEHIAAHLKAGNTLAFAHGFNIHYGYIVPPEDVNVIMCAPKGPGHIVRRQFTEGSGVPDLACVQQDATGNAWDIVLSYCWGVGGARSGIIKATFAEETEEDLFGEQAVLCGGLVELVKAGFETLTEAGYPPELAYFECYHEMKMIVDLMYESGIHFMNYSISNTAEYGEYYAGPKVINEQSREAMKEILKRIQDGSFAQEFVDDCNNGHKRLLEQREAINTHPIETTGAQIRSMFSWIKKED
For orientation: Km means the concentration of substrate that gives half-maximal velocity. B1: in data set [1], the “NADH/NADPH activity ratio in the screen/rescreen relative to parent” value was “more than doubled”. In addition, in data set [2], the “kcat NADH” value amounted to 0.90 s⁻¹, the “kcat/Km ratio NADH/NADPH (cofactor specificity)” value was 0.1 and the “Ratio NADH/NADPH (U/mg)” value is listed as 1.0. Besides, in data set [2] (cofactor NADH), the “U/mg NADH (specific activity)” value was found to be 0.36 U/mg. Besides, the Km in data set [2] (read-out: Km for cofactor NADH) was found to be 49 µM. Also, in data set [2] (listed as 4E10), the “Ratio NADH/NADPH (U/mg)” value was 1. Moreover, the “kcat NADPH” value in data set [3] stood at 0.90 s⁻¹. Moreover, the “U/mg NADPH (specific activity)” value in data set [3] (cofactor NADPH) was 0.36 U/mg. In addition, the Michaelis-Menten constant (Km) in data set [3] (read-out: Km for cofactor NADPH) amounted to 4 µM.
